T1: RHAU53 peptide (UniProt Q9H2U1 53-105)
T1 sequence: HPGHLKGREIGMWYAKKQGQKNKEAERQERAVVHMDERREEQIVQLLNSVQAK


Experiments:
[1] = system: FAM-D-hTERC rG4 (RNA, G4) GGGUUGCGGAGGGUGGGCCU; experiment: microscale thermophoresis; settings: 150 mM KCl, 1 mM MgCl2; 25 mM Tris-HCl pH 7.5, 25 °C, 40 nM RNA
[2] = biological target: T1, RHAU53 peptide; experiment: EMSA
[3] = biological target: nucleolin (UniProt P19338 1-710); experiment: EMSA
Sequence of nucleolin (P19338 whole entry): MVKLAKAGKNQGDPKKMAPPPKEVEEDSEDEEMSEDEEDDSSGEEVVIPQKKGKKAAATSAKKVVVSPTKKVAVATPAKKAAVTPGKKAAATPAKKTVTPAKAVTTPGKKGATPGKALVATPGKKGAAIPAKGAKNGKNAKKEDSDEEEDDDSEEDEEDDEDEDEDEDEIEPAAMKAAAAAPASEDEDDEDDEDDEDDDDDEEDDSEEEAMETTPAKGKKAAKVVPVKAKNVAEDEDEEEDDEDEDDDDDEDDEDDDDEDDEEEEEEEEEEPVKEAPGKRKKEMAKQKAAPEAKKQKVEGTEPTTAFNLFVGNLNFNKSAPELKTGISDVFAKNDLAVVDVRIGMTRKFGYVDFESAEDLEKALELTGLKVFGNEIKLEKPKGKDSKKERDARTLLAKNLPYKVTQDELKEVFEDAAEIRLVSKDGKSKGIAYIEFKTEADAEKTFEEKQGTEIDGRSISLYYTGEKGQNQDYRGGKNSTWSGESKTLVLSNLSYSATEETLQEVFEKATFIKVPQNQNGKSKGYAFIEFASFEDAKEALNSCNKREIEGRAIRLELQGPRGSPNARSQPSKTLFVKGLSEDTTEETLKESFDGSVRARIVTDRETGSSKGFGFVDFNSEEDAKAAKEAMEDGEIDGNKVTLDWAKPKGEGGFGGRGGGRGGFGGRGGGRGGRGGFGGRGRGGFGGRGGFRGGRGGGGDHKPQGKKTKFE

Molecule | Kd [1] [nM] | Kd [2] [nM] | binding result [3]
NCCOc1cc(NC(=O)c2cc(OCc3cn(CCC(=O)O)nn3)cc(C(=O)Nc3cc(OCCN)c4ccccc4n3)n2)nc2ccccc12 | 19.5 ± 11.5 |  | 
GGGUUGCGGAGGGUGGGCCU (structured_RNA) [D-hTERC rG4] |  | 24.5 ± 3.9 | binds
